Data from US20250346673A1 (DUALITY BIOLOGICS SUZHOU, published 2025).
Residue numbers refer to the chain shown, from its start.

B1: mab016c (antibody, V domains shown)
VH: QVQLKQSGPGLVQPSQSLSITCTVSGFSLTSYGVHWVRQSPGKGLEWLGVIWSGESTDYDAAFISRLSISKDNSKSQVFFRMNSLQADDSAIYYCARRRSHYYGYVMDYWGQGTSVTVSS
VL: DIVLTQSPASLAVSLGQRATISCKASQSVDYDGVGYLNWYQHKPGQPPKLLIYAASNLESGIPARFSGSGSGTDFTLNIHPVEEEDAATYYCQQSNEDPPTFGSGTKLEIK
B2: mab019c (antibody, V domains shown)
VH: EVKLVESGGDLVQPGGSLKLSCAASGFTFSDYYMYWVRQTPEKRLEWVAYISYSGDSTYYPDTVKGRFTISRDNAKNTLFLQMSRLKSEDTAMYYCARHSPSFPYYFDYWGQGTALTVSS
VL: EIVLTQSPAITAASLGQKVTITCSASSSVSYMHWYQQKSGTSPKPWIYEISKLASGVPARFSGSGSGTSYSLTISSMEAEDAAIYYCQLWNYPLITFGGGTNLEIK
B3: mab020c (antibody, V domains shown)
VH: DVQLQESGPGLVKPSQSLSLTCSVTGYSIASGYYWNWIRQFPGNKLEWMGYISFDGTYNYNPSLKDRFSITRDTSKNQFFLKLNSVTTEDTATYYCARGVDYPNAIDWWGQGTSVTVSS
VL: DIVLTQSPASLAVSLGQRATISCRASESVSMHVTHLIHWYQQKPGQPPKLLIYVASNLESGVPARFSGSGSETDFTLNIHPVEEEDAATYFCQQSFEDPWTFGGGTKLEIK
B4: mab021c (antibody, V domains shown)
VH: DVQLQESGPGLVKPSQSLSLTCSVTGYSITSAYYWNWIRQFPGNKLECMGYITYDGNNYYSPSLKNRISITRDTSKNQFFLNLNSVTTEDTATYFCARGGDYDDGGFAFWGQGTLVTVSA
VL: DIQMTQSPASLSASVGETVTITCRASGNIHNYLAWYHQKQGKSPQLLVYNAKSLVDGVPSRFSGSGSGTQYSLRINSLQPEDFGSYYCQHFWIVPYTFGGGTKLEII
B5: mab022c (antibody, V domains shown)
VH: B3 VH with A30T, N104K, I106M
VL: B3 VL
B6: mab024c (antibody, V domains shown)
VH: EVQLVESGGDLVKPGGSLKLSCAASGFTFSSFGMSWVRQTPDKRLDWVATISSGDSYTYYPDSVKGRFSISRDNAKNTLYLQMSSLKSEDTAVYYCARQIYYDYAYYFDYWGQGTTLTVSS
VL: B3 VL with M31F, H32R, V33S, T34S, I37M, Q41R, V54A, T89A, F96I, W100P
B7: mab027c (antibody, V domains shown)
VH: B4 VH with I38V, K45Q, N57S, Y59N, S61N, N82K, F95Y, A97V, F109Y
VL: B4 VL with H37Q, S53T, Q70E, R74K, S85I, Y87F, V94I, I107R
B8: mab030c (antibody, V domains shown)
VH: B4 VH with T53S, N57S, S61N, N82S, A97V, F109Y
VL: B4 VL with H37Q, S53T, V55A, G68E, R74K, S85N, Y87F, V94I, I107K
B9: mab033c (antibody, V domains shown)
VH: B6 VH with L4M, G16D, S30R, F32Y, D46E, S69T, V93L, Y110F
VL: B3 VL with M31F, H32R, V33T, T34S, I37M, V54G, T89A, F96I, W100P
B10: mab002c (antibody, V domains shown)
VH: QIQLVQSGPELKKPGETVKISCRASGYSFTDYSMHWVKQAPGKGLKWVGWINTETGEPTYADDFKGRFALSLETSATSAYLQINNLKNEDTATYFCARGGDGFPYWYFNVWGAGTTVTVSS
VL: DIVLTQSPTSLAVSLGQRTNISCRASQSVSTSSNSYIHWYQQKPGQPPKLLIKYASNLDSGVPARFSGSGSGTDFTLNIHPVEEEDTSTYYCQHSWEIPFTFGSGTKLEIK
B11: Hu005-07 (antibody, IgG1, V domains shown)
VH: QVQLQESGPGLVKPSETLSLTCTVSGGSITNYGVHWIRQPPGKGLEWIGVIWSGESTDYDAAFISRVTISKDNSKNQVSLKLSSVTAADTAVYYCARRRSHYYGYVMDYWGQGTTVTVSS
VL: DIVLTQSPASLAVSPGQRATITCKASQSIDYDAIGYLNWYQHKPGQPPKLLIYAASNLESGVPARFSGSGSGTDFTLTINPVEANDTANYYCQQSNEDPPTFGQGTKLEIK
notes: Humanized IgG1; also called hu005-07(BM5)
B12: Hu005-03 (antibody, IgG1, V domains shown)
VH: B11 VH
VL: B11 VL with H42Q
notes: Humanized IgG1; also called hu005-03(BM4)
B13: Hu005-08 (antibody, IgG1, V domains shown)
VH: B11 VH with E6Q, I29L
VL: B11 VL
notes: Humanized IgG1; also called hu005-08(BM7)
B14: Hu005-04 (antibody, human IgG1, kappa, V domains shown)
VH: B11 VH with E6Q, I29L
VL: DIVLTQSPASLAVSPGQRATITCKASQSIDYDAIGYLNWYQQKPGQPPKLLIYAASNLESGVPARFSGSGSGTDFTLTINPVEANDTANYYCQQSNEDPPTFGQGTKLEIKR
notes: Humanized IgG1; also called hu005-04(BM6)
B15: Hu005-24 (antibody, IgG1, V domains shown)
VH: B11 VH with E6Q, I29L
VL: DIQMTQSPSSLSASVGDRVTITCKASQSIDYDAIGYLNWYQQKPGKAPKLLIYAASNLESGVPSRFSGSGSGTDFTLTISSLQPEDFATYYCQQSNEDPPTFGQGTKLEIK
notes: Humanized IgG1; also called hu005-24(BM6)

Experiments:
[1] = target: T1, human BDCA2 (human, UniProt Q8WTT0 1-213); test: FACS on CHOK1-hBDCA2 cells; EC50 table under the plot, unit from the x axis (nM)
T1 construct: whole, on cells; also called hBDCA2; Blood dendritic cell antigen 2
T1 sequence (looked up): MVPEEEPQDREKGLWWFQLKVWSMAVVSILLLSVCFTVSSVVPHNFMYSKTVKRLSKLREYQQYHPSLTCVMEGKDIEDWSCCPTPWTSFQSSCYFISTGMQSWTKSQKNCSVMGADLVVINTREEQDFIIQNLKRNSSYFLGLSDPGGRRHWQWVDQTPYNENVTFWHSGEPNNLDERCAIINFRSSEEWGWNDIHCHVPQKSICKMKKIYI
Procedure: (§1) The cells were recovered and resuspended to 2×10⁶/mL with FACS buffer (PBS+2% FBS). The cells were added to 3799 cell plates (Corning) at 100 μL/well, and the supernatant was discarded after centrifugation at 300 g. The antibodies were serially diluted with FACS buffer (Id.), the diluted antibodies were added to centrifuged cells and the cells were resuspended. The cells were incubated at 4° C. for 1 h. The incubated cells were centrifuged at 300 g for 5 min and washed twice with FACS buffer. 100 μL […] anti-Human IgG (H+L) Cross-Adsorbed Secondary Antibody-Alexa Fluor 488 (Sigma, A11013; 1:1000) secondary antibody was added, washed twice with FACS buffer after incubation at 4° C. for 1 h, resuspended with PBS, analyzed with FACS (BD FACS CantoTM II) instrument and curve fitted with GraphPad Prism6, and EC₅₀ values were calculated.

[2] = target: T1, human BDCA2; test: cell-based or functional assay
[3] = target: T1, human BDCA2; test: FACS on CHOK1-hBDCA2 cells; EC50 table beside the plot, unit from the x axis (nM) [continued) c.]
Procedure: as §1

[4] = target: T1, human BDCA2; test: cell-based or functional assay; remark: listed apart in the source
[5] = target: T1, human BDCA2; test: FACS, CHOK1-humanBDCA2 cells
Procedure: (§2) The cells were recovered and resuspended to 2×10⁶/mL with FACS buffer (PBS+2% FBS). The resuspended cells were added to 3799 cell plates at 100 μL/well, and the supernatant was discarded after centrifugation at 300 g. […] The cells were incubated at 4° C. for 1 h. The incubated cells were centrifuged at […] for 5 min and washed twice with FACS buffer. 100 μL Goat anti-Human IgG (H+L) Cross-Adsorbed Secondary Antibody, Alexa Fluor 488 (Sigma, A11013; 1:1000) secondary antibody was added, washed twice with FACS buffer after incubation at 4° C. for 1 h. The cells were resuspended with PBS, then the fluorescence signal of antibodies bound to cell surface was analyzed with FACS (BD FACS CantoTM II) instrument and curves were fitted with GraphPad Prism6 to calculate EC₅₀ values for antibodies binding to BDCA2 antigen.

[6] = target: T2, Recombinant Human BDCA2 (human, UniProt Q8WTT0 45-213, limits assumed); test: SPR (BIAcore), antibody captured by anti-human IgG (Fc), hBDCA2 as analyte, 1:1 model
T2 construct: also called hBDCA2 (SPR analyte); human BDCA2 antigen
T2 sequence (looked up): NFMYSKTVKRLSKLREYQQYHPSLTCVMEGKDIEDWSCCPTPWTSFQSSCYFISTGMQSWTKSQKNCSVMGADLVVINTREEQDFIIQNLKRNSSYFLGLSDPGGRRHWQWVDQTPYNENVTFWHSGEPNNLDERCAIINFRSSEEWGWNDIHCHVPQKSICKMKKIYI
Procedure: Then 1 M ethanolamine was injected at 10 μL/min flow rate for 420 seconds, and the excess active carboxyl groups on chip were blocked. The humanized antibodies were injected into a detection channel flow cell at flow rate of 10 μL/min for 60 s for capture after diluting to 1 μg/mL using running buffer. […] The sample hBDCA2 to be tested of each concentration gradient was injected into the detection channel at 30 μL/min flow rate, two samples at 0 concentration were used to remove background signal. The binding and dissociation times between antigen and antibody were 180 and 400 sec, respectively. An analysis of data was performed using Biacore Insight Evaluation Software (Version 2.0. 15.12933). A 1:1 binding model was selected for curve fitting and kinetic parameters were calculated after subtraction of signal of the reference channel (flow cell 1) and at 0 concentration.

[7] = target: T3, cynomolgus BDCA2 (cynomolgus monkey, UniProt A0A2K5UWP4 1-212); test: FACS, 293F-cynoBDCA2 cells
T3 construct: whole, on cells; also called Cyno BDCA2; cynoBDCA2
T3 sequence: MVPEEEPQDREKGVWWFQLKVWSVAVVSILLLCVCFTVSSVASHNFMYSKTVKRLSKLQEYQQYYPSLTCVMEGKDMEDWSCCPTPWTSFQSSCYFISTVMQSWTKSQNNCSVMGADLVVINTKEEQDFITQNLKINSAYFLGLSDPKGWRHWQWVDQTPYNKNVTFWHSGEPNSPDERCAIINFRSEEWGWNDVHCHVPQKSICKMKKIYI
Procedure: as §2

[8] = target: T1, human BDCA2; test: FACS, CHOK1-humanBDCA2 cells; remark: listed apart in the source
Procedure: as §2

[9] = target: T3, cynomolgus BDCA2; test: FACS, 293F-cynoBDCA2 cells; remark: listed apart in the source

Binder	IC50, inhibition of IFNα secretion, CpG-A stimulated human PBMC [2] [nM]	EC50 [3] [nM]	EC50 [8] [nM]	binding result [9]	also measured
B1					EC50 [1]: 0.977 nM
B2	0.0149	5.17			
B3	0.0185	0.831			
B4	0.0127	0.479			
B5	0.0324	0.939			
B6	0.0168	0.549			
B7	0.00898	0.443			
B8	0.0164	0.583			
B9	0.00833	0.277			EC50 (nM), inhibition of CpG-A stimulated IFNα release from human PBMC [4]: 0.02 nM; EC50 [5]: 0.26 nM; Kd [6]: 0.11 nM; koff [6]: 7.67e-05 s⁻¹; kon [6]: 698000 M⁻¹ s⁻¹; EC50 [7]: 0.56 nM
B10					EC50 [1]: 1.61 nM
B11			2	binds	
B12			2.1	binds	
B13			2.3	binds	
B14			2.3	binds	
B15			1.9	binds	
